Assay results taken from the supplement of paper PMC10567573.

B1: KCNAB2 (parent)
chain: SSIIHEIDSILGNKPYSKKDYRS

Variants of: B1
Assay: protein stability index of a GFP-peptide fusion (GPS, HEK-293T) (PSI 1-6); higher = more stable
Conditions: c terminus: native
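Note: lentivirally expressed fusions sorted by FACS into six bins by GFP to DsRed ratio, PSI derived from sequencing read proportions per bin multiplied by bin number.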

Question: For SSIIKEIDSILGNKPYSKKDYRS [H5K], which protein stability index is on record?
Answer: 3.83

Question: Which protein stability index does the source give for SSIIPEIDSILGNKPYSKKDYRS [H5P] here?
Answer: 3.09

Question: With SSIIEEIDSILGNKPYSKKDYRS [H5E] as the variant, how does the protein stability index read?
Answer: 2.7

Question: Which protein stability index does the source give for SSIIIEIDSILGNKPYSKKDYRS [H5I] here?
Answer: 1.48

Question: Which protein stability index does the source give for SSIINEIDSILGNKPYSKKDYRS [H5N] here?
Answer: 3.44

Question: With SSIISEIDSILGNKPYSKKDYRS [H5S] as the variant, how does the protein stability index read?
Answer: 2.98

Question: Which protein stability index does the source give for SSFIHEIDSILGNKPYSKKDYRS [I3F] here?
Answer: 2.83

Question: Which protein stability index does the source give for SSHIHEIDSILGNKPYSKKDYRS [I3H] here?
Answer: 4

Question: With SSVIHEIDSILGNKPYSKKDYRS [I3V] as the variant, how does the protein stability index read?
Answer: 3.61

Question: With SSAIHEIDSILGNKPYSKKDYRS [I3A] as the variant, how does the protein stability index read?
Answer: 3.94

Question: With SSQIHEIDSILGNKPYSKKDYRS [I3Q] as the variant, how does the protein stability index read?
Answer: 2.53

Question: Which protein stability index does the source give for SSRIHEIDSILGNKPYSKKDYRS [I3R] here?
Answer: 4.09

Question: Which protein stability index does the source give for SSDIHEIDSILGNKPYSKKDYRS [I3D] here?
Answer: 4.67

Question: With SSIIHEIDSILGNKPYSKKDYTS [R22T] as the variant, how does the protein stability index read?
Answer: 4.28

Question: Which protein stability index does the source give for SSIIHEIDSILGNKPYSKKDYRQ [S23Q] here?
Answer: 3.6

Question: With SSIIHEIDSILGNKPYSKKDYRH [S23H] as the variant, how does the protein stability index read?
Answer: 4.09

Question: For SSIIHEIDSILGNKPYSKKDYRI [S23I], which protein stability index is on record?
Answer: 3.74

Question: Which protein stability index does the source give for SSIIHEIDSILGNKPYSKKDYRC [S23C] here?
Answer: 3.67

Question: Which protein stability index does the source give for SSIIHEIDSILGNKPYSKKDYRK [S23K] here?
Answer: 4.33

Question: For SSIIHEIDSILGNKPYSKKDYRP [S23P], which protein stability index is on record?
Answer: 3.8

Question: For SSIIHEIDSILGNKPYSKKDYRE [S23E], which protein stability index is on record?
Answer: 4.19

Question: Which protein stability index does the source give for SSIIHEIDSILGNKPYSKKDYRW [S23W] here?
Answer: 2.72

Question: Which protein stability index does the source give for SSIIHEIDSILGNKPYSKKDYRY [S23Y] here?
Answer: 3.02

Question: Which protein stability index does the source give for SSIIHEIDSILGNKPYSKKDYRR [S23R] here?
Answer: 2.18

Question: Which protein stability index does the source give for SSIIHEIDSILGNKPYSKKDYRV [S23V] here?
Answer: 3.68

Question: Which protein stability index does the source give for SSIIHNIDSILGNKPYSKKDYRS [E6N] here?
Answer: 3.65

Question: With SSIIHQIDSILGNKPYSKKDYRS [E6Q] as the variant, how does the protein stability index read?
Answer: 2.62

Question: With SSIIHKIDSILGNKPYSKKDYRS [E6K] as the variant, how does the protein stability index read?
Answer: 3.21

Question: Which protein stability index does the source give for SSIIHFIDSILGNKPYSKKDYRS [E6F] here?
Answer: 3.61

Question: Which protein stability index does the source give for SSIIHLIDSILGNKPYSKKDYRS [E6L] here?
Answer: 3.25

Question: With SSIIHRIDSILGNKPYSKKDYRS [E6R] as the variant, how does the protein stability index read?
Answer: 2.26

Question: With SSIIHEIDSILGNGPYSKKDYRS [K14G] as the variant, how does the protein stability index read?
Answer: 2.69

Question: Which protein stability index does the source give for SSIIHEIDSILGNAPYSKKDYRS [K14A] here?
Answer: 2.62

Question: Which protein stability index does the source give for SSIIHEIDSILGNRPYSKKDYRS [K14R] here?
Answer: 3.09

Question: For SSIIHEIDSILGNPPYSKKDYRS [K14P], which protein stability index is on record?
Answer: 3

Question: Which protein stability index does the source give for SSIIHEIDSILGNWPYSKKDYRS [K14W] here?
Answer: 1.7

Question: Which protein stability index does the source give for SSIIHEIDSILGNNPYSKKDYRS [K14N] here?
Answer: 3.22

Question: For SSIIHEIDSILGNVPYSKKDYRS [K14V], which protein stability index is on record?
Answer: 2.94

Question: Which protein stability index does the source give for SSIIHEIDSILGNLPYSKKDYRS [K14L] here?
Answer: 2.77

Question: Which protein stability index does the source give for SSIIHEIDSILGNCPYSKKDYRS [K14C] here?
Answer: 2.55

Question: For SSIIHEIDSILGNSPYSKKDYRS [K14S], which protein stability index is on record?
Answer: 3.49

Question: For SSINHEIDSILGNKPYSKKDYRS [I4N], which protein stability index is on record?
Answer: 4.51

Question: For SSIWHEIDSILGNKPYSKKDYRS [I4W], which protein stability index is on record?
Answer: 1.4

Question: Which protein stability index does the source give for SSIKHEIDSILGNKPYSKKDYRS [I4K] here?
Answer: 2.81

Question: For SSIEHEIDSILGNKPYSKKDYRS [I4E], which protein stability index is on record?
Answer: 3.9

Question: For SSIHHEIDSILGNKPYSKKDYRS [I4H], which protein stability index is on record?
Answer: 2.86

Question: For SSIAHEIDSILGNKPYSKKDYRS [I4A], which protein stability index is on record?
Answer: 3.44

Question: Which protein stability index does the source give for SSIYHEIDSILGNKPYSKKDYRS [I4Y] here?
Answer: 2.75

Question: Which protein stability index does the source give for SSIIHEIDSILGNKPYSKKDERS [Y21E] here?
Answer: 3.37

Question: With SSIIHEIDSILGNKPYSKKDMRS [Y21M] as the variant, how does the protein stability index read?
Answer: 2.17

Question: Which protein stability index does the source give for SSIIHEIDSILGNKPYSKKDTRS [Y21T] here?
Answer: 2.35

Question: With SSIIHEIDSILGNKPYSKKDRRS [Y21R] as the variant, how does the protein stability index read?
Answer: 1.77

Question: Which protein stability index does the source give for SSIIHEIDSILGNKPYSKKDSRS [Y21S] here?
Answer: 1.08

Question: For SSIIHEIDSILGNKPYSKKDLRS [Y21L], which protein stability index is on record?
Answer: 2.37

Question: Which protein stability index does the source give for SSIIHEIDSILGNKPYSKKDKRS [Y21K] here?
Answer: 3.66

Question: With SSIIHEIDSILGNKPYSKKDNRS [Y21N] as the variant, how does the protein stability index read?
Answer: 3.64

Question: With SSIIHEIDSILGNKLYSKKDYRS [P15L] as the variant, how does the protein stability index read?
Answer: 2.84

Question: With SSIIHEIDSILGNKSYSKKDYRS [P15S] as the variant, how does the protein stability index read?
Answer: 3.42

Question: For SSIIHEIDSILGNKEYSKKDYRS [P15E], which protein stability index is on record?
Answer: 3.18

Question: Which protein stability index does the source give for SSIIHEIDSILGNKDYSKKDYRS [P15D] here?
Answer: 3.27

Question: Which protein stability index does the source give for SSIIHEIDSILGNKWYSKKDYRS [P15W] here?
Answer: 2.44

Question: For SSIIHEIDSILGNKKYSKKDYRS [P15K], which protein stability index is on record?
Answer: 3.36

Question: For SSIIHEIDSILGNKTYSKKDYRS [P15T], which protein stability index is on record?
Answer: 3.33

Question: With SSIIHEFDSILGNKPYSKKDYRS [I7F] as the variant, how does the protein stability index read?
Answer: 2.71

Question: For SSIIHERDSILGNKPYSKKDYRS [I7R], which protein stability index is on record?
Answer: 3.86

Question: For SSIIHEHDSILGNKPYSKKDYRS [I7H], which protein stability index is on record?
Answer: 3.97

Question: Which protein stability index does the source give for SSIIHEKDSILGNKPYSKKDYRS [I7K] here?
Answer: 3.45

Question: With SSIIHEGDSILGNKPYSKKDYRS [I7G] as the variant, how does the protein stability index read?
Answer: 4.45

Question: For SSIIHEIDSILGNKPYSKKIYRS [D20I], which protein stability index is on record?
Answer: 2.41

Question: With SSIIHEIDSILGNKPYSKKLYRS [D20L] as the variant, how does the protein stability index read?
Answer: 2.63

Question: Which protein stability index does the source give for SSIIHEIDSILGNKPYSKKYYRS [D20Y] here?
Answer: 2.07

Question: Which protein stability index does the source give for SSIIHEIDSILGNKPYSKKQYRS [D20Q] here?
Answer: 2.04

Question: Which protein stability index does the source give for SSIIHEIDSILGNKPYSKKFYRS [D20F] here?
Answer: 2.37

Question: Which protein stability index does the source give for SSIIHEIDSILGNKPYSKKHYRS [D20H] here?
Answer: 2.51

Question: For SSIIHEIDSILGNKPYSKKVYRS [D20V], which protein stability index is on record?
Answer: 2.03

Question: For SSIIHEIDSILGNKPYSKKNYRS [D20N], which protein stability index is on record?
Answer: 3.2
